From patent US20250027068A1

B1: VRT-39 (Fc fusion)
chain: ITSVWTKGVTPPAKFTQGEDVFHAPYVANQGWYDITKTFNRKDNLLCGAATAGNMLHWWFDQNKEEIEAYLKKHPEKQKIIFGDQELLDVRKVINTKDSQTNSALFNYFKDKAFPNLSARRLGVFPDLVLDMFINGYYLNVYKTQTTDVNRTYQTKDRRGGIFDAVFTRGVQSKLLTERHDFKEKTLKEISDLIKQELTEGKALGLSHTYANVRINHVINLWGADFDSNGNLEAIYVTDSDTRASIGMKKYFVGVNAAGKVAISAKEIKEDNIGAQVLGLFTLSTGQDIWNQTNDKTHTCPPCPAPEAAGAPSVFLFPPKPKDTLMISRTPEVTCVVVDVSHEDPEVKFNWYVDGVEVHNAKTKPREEQQNSTYRVVSVLTVLHQDWLNGKEYKCKVSNKALKAPIEKTISKAKGQPREPQVYTLPPSRDELTKNQVSLTCLVKGFYPSDIAVEWESNGQPENNYKTTPPVLDSDGSFFLYSKLTVDKSRWQQGNVFSCSVMHEALHNHYTQKSLSLSPG
B2: VRT-40 (Fc fusion)
chain: TITSVWTKGVTPPTPEDFRYYNEDVLHAPYVANQGWYDITKTFDGKDNLLCGAATAGNMLHWWFDQNKEEIERYLKKHPEKQKIIFKNQELFDVKAAIDTKDSQTNSKLFNYFRDKAFPGLSARQLGVFPDLVLDMFINGYYLNLGKTQSTDVNRPYQDKDKRGGIFDAVFTRGVQTTLLTARHDLKNKGLNEISDLIKQELTEGKALALSHTYANVRINHVINLWGADFDAEGNLIAIYVTDSDTRASIGMKKYFVGVNANGKVAISAKKIEGDNIGAQVLGLFTLSTGQDIWQKLSDKTHTCPPCPAPEAAGAPSVFLFPPKPKDTLMISRTPEVTCVVVDVSHEDPEVKFNWYVDGVEVHNAKTKPREEQQNSTYRVVSVLTVLHQDWLNGKEYKCKVSNKALKAPIEKTISKAKGQPREPQVYTLPPSRDELTKNQVSLTCLVKGFYPSDIAVEWESNGQPENNYKTTPPVLDSDGSFFLYSKLTVDKSRWQQGNVFSCSVMHEALHNHYTQKSLSLSPG
B3: VRT-42 (Fc fusion)
chain: QITSVWTKGVTPLTPEQFRYYNEDVIHAPYLANQGWYDITKTFNGKDNLLCGAATAGNMLHWWFDQNKTEIEAYLKKHPEKQKIIFKNQELFDLKAAIDTKDSQTNSQLFNYFRDKAFPGLSARQLGVFPDLVLDMFINGYYLNVFKTQSTDVNRPYQDKDKRGGIFDAVFTRGVQTTLLTARHDLKNKGLNEISTLIKQELTEGKALALSHTYANVRISHVINLWGADFNAEGNLEAIYVTDSDSRASIGMKKYFVGVNAHGKVAISAKKIEGENIGAQVLGLFTLSSGKDIWQKLSDKTHTCPPCPAPEAAGAPSVFLFPPKPKDTLMISRTPEVTCVVVDVSHEDPEVKFNWYVDGVEVHNAKTKPREEQQNSTYRVVSVLTVLHQDWLNGKEYKCKVSNKALKAPIEKTISKAKGQPREPQVYTLPPSRDELTKNQVSLTCLVKGFYPSDIAVEWESNGQPENNYKTTPPVLDSDGSFFLYSKLTVDKSRWQQGNVFSCSVMHEALHNHYTQKSLSLSPG
B4: VRT-43 (Fc fusion)
chain: QITSVWTKGVTPPTPEQFRYYNEDVFHAPYTAHQGWYDITKTFDGKDNLLCGAATAGNMLHWWFDQNKTEIEAYLSKHPEKQKIIFKNQELFDLKAAIDTKDSQTNSALFNYFRDKAFPGLSARQLGVFPDLVLDMFINGYYLNVFKTQSTDVNRPYQDKDKRGGIFDAVFTRGVQTTLLTARHDLKNKTLNDISTIIKQELTEGRALALSHTYANVRISHVINLWGADFNAEGNLEAIYVTDSDSRASIGMKKYFVGVNASGKVAISAKKIEGENIGAQVLGLFTLSSGKDIWQKLSDKTHTCPPCPAPEAAGAPSVFLFPPKPKDTLMISRTPEVTCVVVDVSHEDPEVKFNWYVDGVEVHNAKTKPREEQQNSTYRVVSVLTVLHQDWLNGKEYKCKVSNKALKAPIEKTISKAKGQPREPQVYTLPPSRDELTKNQVSLTCLVKGFYPSDIAVEWESNGQPENNYKTTPPVLDSDGSFFLYSKLTVDKSRWQQGNVFSCSVMHEALHNHYTQKSLSLSPG
B5: VRT-44 (Fc fusion)
chain: SQTEDSESLQRLRDIEDFQAEKKKQNVVYTKWLDGVDVKDHDFRKIVDGNIAYYATPLLNGRGFYDINKDFNRDNDKCAAAVAANMFHYWLDRNRDNVDRFLRQNPEKHGIIELPDEQLKLSDFLNTYESDDGYRDKSKLFDFISNNFNKPVWTDKLLDNYINGYAYNYKYGRTIEDSTKNTSKINFFKEVFNEKILTNIHSIRNQNEFSVLLSEALYTGKAIGLSYGPAGLRHSLGHIISVWGADLDADGNVVAIYVTDSDDKKLTIGDERVGLKRYKISTDDEGRLRLTAYEETHNTGGQIRGLWTLDTGKQAWADYFDKTEQTGTDQAEQDKTHTCPPCPAPEAAGAPSVFLFPPKPKDTLMISRTPEVTCVVVDVSHEDPEVKFNWYVDGVEVHNAKTKPREEQQNSTYRVVSVLTVLHQDWLNGKEYKCKVSNKALKAPIEKTISKAKGQPREPQVYTLPPSRDELTKNQVSLTCLVKGFYPSDIAVEWESNGQPENNYKTTPPVLDSDGSFFLYSKLTVDKSRWQQGNVFSCSVMHEALHNHYTQKSLSLSPG
B6: VRT-47 (Fc fusion)
chain: VTSVWTKGVTPPTDFIYGEDVLHAPYKAGQGWYDITKTFNGKDDLLCGAATAGNMLHWWFDQNKEQIENYLKKHPEKQKINFNGEQMFDVKEAIDTKDSQLDSKLFEYFKEKAFPYLSTKHLGVFPDHVIDMFINGYRLSLTNHGPTPVKRGSKDPRGGIFDAVFTRGDQSKLLTNRHDLKNKTLKEISDLIKQELTEGKALGISHTYANVRINHVINLWGADFDAEGNLEAIYVTDSDSNASIGMKKYFVGVNSNGKVAISAKEIEEDNIGAQVLGLFTLSTGQDIWNQTNDKTHTCPPCPAPEAAGAPSVFLFPPKPKDTLMISRTPEVTCVVVDVSHEDPEVKFNWYVDGVEVHNAKTKPREEQQNSTYRVVSVLTVLHQDWLNGKEYKCKVSNKALKAPIEKTISKAKGQPREPQVYTLPPSRDELTKNQVSLTCLVKGFYPSDIAVEWESNGQPENNYKTTPPVLDSDGSFFLYSKLTVDKSRWQQGNVFSCSVMHEALHNHYTQKSLSLSPG
B7: VRT-48 (Fc fusion)
chain: VTSVWTKGVTPPTDFRKIVDGNIAYYHAPYKAGQGWYDITKAFDGGDDLLCGAATAGNMLHWWFDQNKEQIENYLKKHPEKQKINFNGEQMFDVKEAIDTKDSQTNSELFNYFKEKAFPYLSTKHLGVFPDHVIDMFINGYRLSLTNHGPTPVKRGSKDPRGGIFDAVFTRGDQSKLLTNRHDLKNKTLKEISDLIKQELTEGKALGISHTYANVRINHVINLWGADFDAEGNLEAIYVTDSDSNASIGMKKYFVGVNSNGKVAISAKEIEEDNIGAQVLGLFTLSTGQDIWNQTNDKTHTCPPCPAPEAAGAPSVFLFPPKPKDTLMISRTPEVTCVVVDVSHEDPEVKFNWYVDGVEVHNAKTKPREEQQNSTYRVVSVLTVLHQDWLNGKEYKCKVSNKALKAPIEKTISKAKGQPREPQVYTLPPSRDELTKNQVSLTCLVKGFYPSDIAVEWESNGQPENNYKTTPPVLDSDGSFFLYSKLTVDKSRWQQGNVFSCSVMHEALHNHYTQKSLSLSPG
B8: VRT-49 (Fc fusion)
chain: VTSVWTKGVTPPTNFTYGEDVLHAPYVANQGWYDITKTFNGKDDLLCGAATAGNMLHWWFDQNKEQIENYLKKHPEKQKINFNGEQMFDVKEAIDTKDSQLDSKLFEYFKEKAFPYLSTKHLGVFPDHVIDMFINGYRLSLTNHGPTPVKRGSKDPRGGIFDAVFTRGDQSKLLTNRHDLKNKTLKEISDLIKQELTEGKALGISHTYANVRINHVINLWGADFDAEGNLEAIYVTDSDSNASIGMKKYFVGVNSNGKVAISAKEIEEDNIGAQVLGLFTLSTGQDIWNQTNDKTHTCPPCPAPEAAGAPSVFLFPPKPKDTLMISRTPEVTCVVVDVSHEDPEVKFNWYVDGVEVHNAKTKPREEQQNSTYRVVSVLTVLHQDWLNGKEYKCKVSNKALKAPIEKTISKAKGQPREPQVYTLPPSRDELTKNQVSLTCLVKGFYPSDIAVEWESNGQPENNYKTTPPVLDSDGSFFLYSKLTVDKSRWQQGNVFSCSVMHEALHNHYTQKSLSLSPG
B9: VRT-50 (Fc fusion)
chain: VTSVWTKGVTPPTDFIYGEDVLHAPYKAGQGWYDITKTFNGKDNLLCGAATAGNMLHWWFDQNKEQIENYLKKHPEKQKIIFNNQELFDLKAAIDTKDSQLDSKLFEYFKEKAFPYLSTKHLGVFPDHVIDMFINGYRLSLTNHGPTPVKRGSKDKRGGIFDAVFTRGVQSKLLTNRHDFKEKTLKEISDLIKQELTEGKALGISHTYANVRINHVINLWGADFDAEGNLEAIYVTDSDTNASIGMKKYFVGVNSNGKVAISAKEIEEDNIGAQVLGLFTLSTGQDIWNQTNDKTHTCPPCPAPEAAGAPSVFLFPPKPKDTLMISRTPEVTCVVVDVSHEDPEVKFNWYVDGVEVHNAKTKPREEQQNSTYRVVSVLTVLHQDWLNGKEYKCKVSNKALKAPIEKTISKAKGQPREPQVYTLPPSRDELTKNQVSLTCLVKGFYPSDIAVEWESNGQPENNYKTTPPVLDSDGSFFLYSKLTVDKSRWQQGNVFSCSVMHEALHNHYTQKSLSLSPG
B10: VRT-52 (Fc fusion)
chain: VTSVWTKGVTPPTDFIYGEDVLHAPYKAGQGWYDITKAFDGGDNLLCGAATAGNMLHWWFDQNKEQIENYLKKHPEKQKIIFNNQELFDLKAAIDTKDSQTNSELFNYFKEKAFPYLSTKHLGVFPDHVIDMFINGYRLSLTNHGPTPVKRGSKDKRGGIFDAVFTRGVQSKLLTNRHDLKNKTLKEISDLIKQELTEGKALGISHTYANVRINHVINLWGADFDAEGNLEAIYVTDSDTNASIGMKKYFVGVNSNGKVAISAKEIEEDNIGAQVLGLFTLSTGQDIWNQTNDKTHTCPPCPAPEAAGAPSVFLFPPKPKDTLMISRTPEVTCVVVDVSHEDPEVKFNWYVDGVEVHNAKTKPREEQQNSTYRVVSVLTVLHQDWLNGKEYKCKVSNKALKAPIEKTISKAKGQPREPQVYTLPPSRDELTKNQVSLTCLVKGFYPSDIAVEWESNGQPENNYKTTPPVLDSDGSFFLYSKLTVDKSRWQQGNVFSCSVMHEALHNHYTQKSLSLSPG

biological target: pooled human IgG (human); experiment: cell-based or functional assay
For Enzyme Activity Endpoint Assay: scIgG in this document: test concentration or dose not given here.

Question: With B1 as the binder, how does the Enzyme Activity Endpoint Assay: Fab′2 read?
Answer: 0 ng/µL

Question: And the Enzyme Activity Endpoint Assay: Fc?
Answer: 27 ng/µL

Question: What about the Enzyme Activity Endpoint Assay: IgG of the same binder?
Answer: 1020 ng/µL

Question: And the Enzyme Activity Endpoint Assay: scIgG?
Answer: 22 ng/µL

Question: B2 was tested. Which Enzyme Activity Endpoint Assay: Fab′2 did it give?
Answer: 63 ng/µL

Question: And the Enzyme Activity Endpoint Assay: Fc?
Answer: 243 ng/µL

Question: And the Enzyme Activity Endpoint Assay: IgG?
Answer: 167 ng/µL

Question: And the Enzyme Activity Endpoint Assay: scIgG?
Answer: 222 ng/µL

Question: What does the source list for B3?
Answer: Enzyme Activity Endpoint Assay, Fab′2: 0 ng/µL; Enzyme Activity Endpoint Assay, Fc: 28 ng/µL; Enzyme Activity Endpoint Assay, IgG: 985 ng/µL; Enzyme Activity Endpoint Assay, scIgG: 20 ng/µL

Question: Which results are given for B4?
Answer: Enzyme Activity Endpoint Assay, Fab′2: 0 ng/µL; Enzyme Activity Endpoint Assay, Fc: 28 ng/µL; Enzyme Activity Endpoint Assay, IgG: 1010 ng/µL; Enzyme Activity Endpoint Assay, scIgG: 23 ng/µL

Question: B5 was tested. Which Enzyme Activity Endpoint Assay, Fab′2 did it give?
Answer: 0 ng/µL

Question: What about the Enzyme Activity Endpoint Assay, Fc of the same binder?
Answer: 28 ng/µL

Question: And the Enzyme Activity Endpoint Assay, IgG?
Answer: 1070 ng/µL

Question: What about the Enzyme Activity Endpoint Assay, scIgG of the same binder?
Answer: 21 ng/µL

Question: Which results are given for B6?
Answer: Enzyme Activity Endpoint Assay, Fab′2: 168 ng/µL; Enzyme Activity Endpoint Assay, Fc: 317 ng/µL; Enzyme Activity Endpoint Assay, IgG: 253 ng/µL; Enzyme Activity Endpoint Assay, scIgG: 156 ng/µL

Question: Which Enzyme Activity Endpoint Assay, Fab′2 does the source give for B7 here?
Answer: 9 ng/µL

Question: What about the Enzyme Activity Endpoint Assay, Fc of the same binder?
Answer: 222 ng/µL

Question: And the Enzyme Activity Endpoint Assay, IgG?
Answer: 134 ng/µL

Question: What about the Enzyme Activity Endpoint Assay, scIgG of the same binder?
Answer: 258 ng/µL

Question: Which results are given for B8?
Answer: Enzyme Activity Endpoint Assay, Fab′2: 135 ng/µL; Enzyme Activity Endpoint Assay, Fc: 291 ng/µL; Enzyme Activity Endpoint Assay, IgG: 157 ng/µL; Enzyme Activity Endpoint Assay, scIgG: 131 ng/µL

Question: What does the source list for B9?
Answer: Enzyme Activity Endpoint Assay, Fab′2: 8 ng/µL; Enzyme Activity Endpoint Assay, Fc: 226 ng/µL; Enzyme Activity Endpoint Assay, IgG: 295 ng/µL; Enzyme Activity Endpoint Assay, scIgG: 360 ng/µL

Question: Which results are given for B10?
Answer: Enzyme Activity Endpoint Assay, Fab′2: 6 ng/µL; Enzyme Activity Endpoint Assay, Fc: 213 ng/µL; Enzyme Activity Endpoint Assay, IgG: 238 ng/µL; Enzyme Activity Endpoint Assay, scIgG: 311 ng/µL
